Data from patent US10227388B2, “Peptides and combination of peptides for use in immunotherapy against non-small cell lung cancer and other cancers” (immatics biotechnologies GmbH, priority 2015, dated 2019).

What follows are substances tested against HLA-A*02:01 (Homo sapiens, UniProt P04439, D140Y/D185E/D98H/E176V/E277Q/G131W/G231S/I119V/I121R/I166T/I218V/L300P/L318F/N151K/N90K/P208A/P217A/Q86G/Q94H/R138H/R169H/T345S) (assay: MHC binding assay (UV-ligand exchange, ELISA, peptide exchange yield)). Settings: binding of HLA-class I restricted peptides to HLA-A*02:01.
From the text: Candidate peptides for T cell based therapies according to the present invention were further tested for their MHC binding capacity (affinity). The individual peptide-MHC complexes were produced by UV-ligand exchange, where a UV-sensitive peptide is cleaved upon UV-irradiation, and exchanged with the peptide of interest as analyzed. Only peptide candidates that can effectively bind and stabilize the peptide-receptive MHC molecules prevent dissociation of the MHC complexes. To determine the yield of the exchange reaction, an ELISA was performed based on the detection of the light chain ([…]) of stabilized MHC complexes. The assay was performed as generally described in Rodenko et al. (Rodenko et al., 2006).
96 well MAXISorp plates (NUNC) were coated over night with 2-ug/ml streptavidin in PBS at room temperature, washed 4× and blocked for 1 h at 37° C. in 2% BSA containing blocking buffer. […] Peptide-MHC monomers of the UV-exchange reaction were diluted 100 fold in blocking buffer. Samples were incubated for 1 h at 37° C., washed four times, incubated with 2-ug/ml HRP conjugated anti-β2m for 1 h at 37° C., washed again and detected with TMB solution that is stopped with […]. Absorption was measured at 450 nm. Candidate peptides that show a high exchange yield (preferably higher than 50%, most preferred higher than 75%) are generally preferred for a generation and production of antibodies or fragments thereof, and/or T cell receptors or fragments thereof, as they show sufficient avidity to the MHC molecules and prevent dissociation of the MHC complexes.
“192 (KMLDGASFTL; listed as Homo sapiens) [compound 192]” was tested, and the “Peptide exchange (MHC class I binding score, peptide exchange yield)” value (“Peptide exchange” below) was “″+++″ (≥50% = +++)”. For “236 (GLLEAKVSL; listed as Homo sapiens) [compound 236]”, the “Peptide exchange” value was “″+++″ (≥50% = +++)”. In the case of “579 (NLMEMVAQL; listed as Homo sapiens) [compound 579]”, the “Peptide exchange” value is reported as “″++″ (≥20% = ++)”. “188 (GLFPVTPEAV; listed as Homo sapiens) [compound 188]” was tested, and the “Peptide exchange” value was “″+++″ (≥50% = +++)”. With “60 (SLTIDGIYYV; listed as Homo sapiens) [compound 60]” the “Peptide exchange” value was “″++++″ (≥75% = ++++)”. For “133 (KVLSNIHTV; listed as Homo sapiens) [compound 133]”, the “Peptide exchange” value was “″++″ (≥20% = ++)”. With “75 (GLLEVMVNL; listed as Homo sapiens) [compound 75]” the “Peptide exchange” value was “″+++″ (≥50% = +++)”. In the case of “210 (LLLNAVLTV; listed as Homo sapiens) [compound 210]”, the “Peptide exchange” value is reported as “″++″ (≥20% = ++)”. “28 (QLLDETSAITL; listed as Homo sapiens) [compound 28]” was tested, and the “Peptide exchange” value was “″+++″ (≥50% = +++)”. In the case of “353 (YLFEMDSSL; listed as Homo sapiens) [compound 353]”, the “Peptide exchange” value is reported as “″++″ (≥20% = ++)”. In the case of “167 (KVLEVTEEFGV; listed as Homo sapiens) [compound 167]”, the “Peptide exchange” value is reported as “″+++″ (≥50% = +++)”. With “45 (SLWQDIPDV; listed as Homo sapiens) [compound 45]” the “Peptide exchange” value was “″+++″ (≥50% = +++)”. With “408 (VLDDSIYLV; listed as Homo sapiens) [compound 408]” the “Peptide exchange” value was “″++″ (≥20% = ++)”. In the case of “234 (ALMEDTGRQML; listed as Homo sapiens) [compound 234]”, the “Peptide exchange” value is reported as “″++″ (≥20% = ++)”. “186 (TLFFQQNAL; listed as Homo sapiens) [compound 186]” was tested, and the “Peptide exchange” value was “″++″ (≥20% = ++)”. For “63 (YLLPSGGSVTL; listed as Homo sapiens) [compound 63]”, the “Peptide exchange” value was “″++″ (≥20% = ++)”. With “169 (NLPEYLPFV; listed as Homo sapiens) [compound 169]” the “Peptide exchange” value was “″+++″ (≥50% = +++)”. With “452 (ILLEHGADPNL; listed as Homo sapiens) [compound 452]” the “Peptide exchange” value was “″+++″ (≥50% = +++)”. For “434 (KVSNSGITRV; listed as Homo sapiens) [compound 434]”, the “Peptide exchange” value was “″++″ (≥20% = ++)”. In the case of “50 (SLSELEALM; listed as Homo sapiens) [compound 50]”, the “Peptide exchange” value is reported as “″+++″ (≥50% = +++)”. In the case of “229 (RLPGPLGTV; listed as Homo sapiens) [compound 229]”, the “Peptide exchange” value is reported as “″++″ (≥20% = ++)”. With “139 (SVMEVNSGIYRV; listed as Homo sapiens) [compound 139]” the “Peptide exchange” value was “″+++″ (≥50% = +++)”. For “309 (GLFDGVPTTA; listed as Homo sapiens) [compound 309]”, the “Peptide exchange” value was “″+++″ (≥50% = +++)”. With “550 (FLYDEIEAEVNL; listed as Homo sapiens) [compound 550]” the “Peptide exchange” value was “″+++″ (≥50% = +++)”. In the case of “484 (SLIEKVTQL; listed as Homo sapiens) [compound 484]”, the “Peptide exchange” value is reported as “″+++″ (≥50% = +++)”. With “223 (ALLENIALYL; listed as Homo sapiens) [compound 223]” the “Peptide exchange” value was “″+++″ (≥50% = +++)”. In the case of “521 (MLLTKLPTI; listed as Homo sapiens) [compound 521]”, the “Peptide exchange” value is reported as “″+++″ (≥50% = +++)”. For “522 (TLWYRSPEV; listed as Homo sapiens) [compound 522]”, the “Peptide exchange” value was “″++″ (≥20% = ++)”.
